Assay: soluble on expression in E. coli; label from the status in PepcDB or PDB records

Sequence: MGSDKIHHHHHHMSHGAGEPYFLTEMSDMAVAGCHVMAKPGGAICNIDCTYCFYLEKEALYPERNKNWRMSDETLEQFIRQHIAAQSGDRIDFAWQGGEPTMMGLPFFRRVVALCEKYGDGRKITHALQTNGILVNDEWARFFAEQHFLIGLSIDGPASLHNHYRFNRAGKGTHEQVVAAMARLKAHHVDFNTLTVVGKHNVGHAADVYEFLLAAGSRFIQFIPLVERMSTDNSSVLNLVMPGESAATLAPWTVPSWQYGEFLNQIFDIWVRRDVDRVYVQMFDVALAAWTAQQPVLCVHSETCGHAFALESNGDLYNCDHFVYPEHLLGNIHQHSIKALNNSERAIAFGEAKRETLTADCRRCDYRFVCHGGCPKHRFAVSPSGHPAHNYLCAGYKHFFQHVTPYMNVWRELLAQGYPMASIMRWLAQDARKDTGAVSRNHPCPCGSGKKYKKCCGKA
- soluble on expression in E. coli: not soluble

Sequence: MGSDKIHHHHHHMIYRNWLGIIGVACILFVSCKPTEVDVPITYYSSFLLKDTTVMLSKVEMDPMQVNARCMVWDGDKRVLVRTSTTDSIYAVFAYPEMKFLSYTGSLSEYKQILAECNEGFYLVKDDSLYLYHLTDKDLLQKTTTHFLYNSNKIRLSKIKKLNDKMYTAHAYTDPSYNDIRLNEFYMLDAENNILYPKGHYPERTEVRFKTIFDFKFAYAHEVWPKPDGSRILVNYVRTRRFRIYDLSARLLHDVCLDYASNKYVVDADPKRWTTFIRDCFVTDKYIYLLCPEGEQSSLVIVDWEGRPIARYRLDEKIFFFFIDPDRNLFCGINSNNGQSFYFLDLDIN
- soluble on expression in E. coli: not soluble

Sequence: KGDVDEKLLDKGIEAVLDQTDYVNGGFGSAPKFHHAKAVELLLTHHFFTGDEEVLKAAEITLDAMARGGIYDHLLGGFFRYSTDAKWVTPHYEKMLYDNAELLYLYSIAYALTGKRLYQKIADGIVEYYRKFGCSNEGGFYASQDADIGELDEGGYYLFSDRELKEILDEREFRIATLYYDIQGERKLPRIFLTEEEISKILGVSVEEVERAVNSARRKMLEFREQREMPYIDTTIYAGWNGLMIEALCMHHKVFGDNWSLEMAEKTANRLLKEFWDGRELLHTHNVEGLSEDYIFFARGLLALFEVTQRHEYLEKCFEIVDSAVEKFWDGEDGGFFD
- soluble on expression in E. coli: not soluble

Sequence: MGSDKIHHHHHHMLQAFATQYIVESLGCETEIIDYTADRFNKHYPLDLGLFRFLIDAYQEKKKKAARTKFNDATFQNNIAKRKTSYVEFIHRRLHNIKEVSGFSNLCKLGSEYDAVLIGSDQKWHPGFSFGVDSSFRFVPKSVRTISYATSLGVSEYPKSYWRTSRKAWSRIDYLSVREKTGADIISKVCDNNIHAEVVVDPTYLISCEDWKKIFPVEKKFEDKYIFCYFLGNDEESKKCARRYANLKGLKLVSVVSNESYSEIDQEYADFLMTGESPDSFVNWIRGAECVFTDSFHGTAFSIMNEKQIYVFYRKNTGVKLQRHSRIDDILSLWEIKYRLITDKHREWDSYQEQPIDYTLVTQKVQSERERSMKFLKAALTF
- soluble on expression in E. coli: not soluble

Sequence: MLENRLYKRSDFWKLFSRKYKLTKTIEHMMIDSIDIQENDRILEIGIGNGTVFKSITKKLKKGSLKSIDPSKRKVRQISRANRKNMGNGEVFHGYPEDIPFDDRTFNKVFSLHTVQSCTDIRLALREIYRVLQIDGRFYISIDTNTGEKEKTYIQLLKDQHFRDLSVIRRASCLCIVAVKLEHHHHHH
- soluble on expression in E. coli: soluble

Sequence: MGSDKIHHHHHHMLKKESIHFINKNRSLIVCEDNFVYLLPCIQLRNWISNFTISFPNQTIISDNYTIIPHGSVTLVFFYDATGLHSLLFGPTTKPKTVGNIANRCDVILIIEFQPAGFFPLIGIQQSELIDKVVPFSIINTSLDLEIKKIFNESLSIDKLILKLEELLISNIKIEYSYEFILAIQLIIQNSGNISSQEISKKVFYSSRHLNRLFNQYLGLSMKSFSRLVRINKSIKLLNNNKTSLMSICNELGFYDIPHFIKDFKIVCGITPQKYRANMSDFYSEIAKF
- soluble on expression in E. coli: not soluble

Sequence: MKKEHQKTLTFEIITPVVMAGTYKDEPELRIPSIKGMLRWWFRFFYASHNQSIDKLREHENEIFGSTEKACQFYMHLKYSQKLTDAYLAMNKRYGRYNNIKRKALEKNDTFRIDFIYSPFFTYKKELNTTLQLLSFLGGIGARWRRGFGSIQLKNGEDYKSFDKLKEKIEKVLKGKGEYHHDGFININNVDIYLVKPKRDNFWIDSLGAMNNLRKKVYKEFKSETNIKAIACKPKGGSRAVSPLIIQIKKFSEGKFYGILIVYNEWDKYEEFKNFINNNSELSFEQLLKSKPRKI
- soluble on expression in E. coli: soluble

Sequence: GPGSMLKRSVSAAARKAGADTLAAAPAAGQQPPSNPLLPYALRRAAACEMLYGGSRVQYLVQPPFTLHKIRSENLPPPSLYAERHDLGLEMQLPRDMHVYNSINMAIQRQVGGDSSTLDGEQQQLQGGHADGFDMGAFFTEQHHPERHHNSSLPYAKHDTNNVLAMRLFPVNVGVRARTEAIRIRTDDCLQRLRDADLCAKMRLPLEHPLPLSRRSQYAAIHRVRQERCYDAPTEAAGERAAAAAEEASRTAHLRGAAAHPPPSELSIVTRPVDRLGSHSGSSAAACTADADHLSFPVHPFAAAAVSSGCHSARSGSAARLASQRWLPLQTLKPMGHNWSAATRSSGVRGPHMQLMQERLDQKGFGWKRKSRSLWQQDVATAGFRPHRYF
- soluble on expression in E. coli: soluble

Sequence: MDYTKYLAGRANWIKGSALADVMKKASELQKKGVKLISLAAGDPDPELIPRAVLGEIAKEVLEKEPKSVMYTPANGIPELREELAAFLKKYDHLEVSPENIVITIGGTGALDLLGRVLIDPGDVVITENPSYINTLLAFEQLGAKIEGVPVDNDGMRVDLLEEKIKELKAKGQKVKLIYTIPTGQNPMGVTMSMERRKALLEIASKYDLLIIEDTAYNFMRYEGGDIVPLKALDNEGRVIVAGTLSKVLGTGFRIGWIIAEGEILKKVLMQKQPIDFCAPAISQYIALEYLKRGYFEKYHLEGALLGYKEKRDIMLKALENHLPNAEFTKPIAGMFVMFFLPEGADGISFANELMEREGVVVVPGKPFYTDESGKNAIRLNFSRPSKEEIPIGIKKLAKLYKEKFGE
- soluble on expression in E. coli: soluble

Sequence: MSKRYAVVLAAGQGTRMKSKLYKVLHPVCGKPMVEHVVDQISTLNVDKVVTIVGHGAEKVQEHLAGKSEFVKQDEQLGTAHAVLQAKAELAGKDGVTLVVCGDTPLIEASTMEALLKYHHEKRAKATILTTVIEDPTGYGRIIRDDLGIVEKIVEHKDATEKEQRISEINTGTYCFDNKALFEALENVSNDNVQGEYYLPDVIKILKDSDEVVAAYRMESFEESLGVNDRIALAEASKLMQRRINENHMRNGVTLVNPESTYIDIDVKIGQDTVIEPGVMLRGKTVIGDDCVVTSGSEIVNSVIGERVHVRTSSIFESKVGDDVQIGPYAHLRPESDIHDHVKIGNYVETKKAVVGEGTKLPHFIYMGDAEIGKNVNVGCGSIAVNYDGKNKAKTIIGDNVFVGCNSNLIAPVKVGDRAFIAAGSTITKDVPEDALGIARAKQDNKLGYAKHLNHSK
- soluble on expression in E. coli: not soluble

Sequence: MEGQTHDAQNNVPEHDNPLMNVKNPSSNLFSKKDAQCLSVLCNGKWLQIVRSSPKVSCEASTCPSHILTKVGENYVAESEKMHKKVISFSSKTFSQGTLQFTMRANGTPHFVFKLENQKDVYVASLSSNVQDQNSYMIHLQRGESSASSSHLVGRINVSTLFSEKVLEREFVLFSSNGENLKIPRTRKNRGLSKKVVHAVKNERRTARLSRTSFIPDLGSWDEQFQAQNYDCLLKNKLPTNLETLAVVVKQETIEDEIGGWGLKFLKRSPMFQRSNDASETETSTSSISMNVVIPSGIHGGPEDGPSSLIERWKSQGNCDCGGWDLCCSLTLLKGQPRKDQYFELFIEVKLSFISSNTSIL
- soluble on expression in E. coli: not soluble

Sequence: MYALFLLASLLGAALAGPVLGLKECTRGSAVWCQNVKTASDCGAVKHCLQTVWNKPTVKSLPCDICKDVVTAAGDMLKDNATEEEILVYLEKTCDWLPKPNMSASCKEIVDSYLPVILDIIKGEMSRPGEVCSALNLCESLQKHLAELNHQKQLESNKIPELDMTEVVAPFMANIPLLLYPQDGPRSKPQPKDNGDVCQDCIQMVTDIQTAVRTNSTFVQALVEHVKEECDRLGPGMADICKNYISQYSEIAIQMMMHMQPKEICALVGFCDEVKEMPMQTLVPAKVASKNVIPALELVEPIKKHEVPAKSDVYCEVCEFLVKEVTKLIDNNKTEKEILDAFDKMCSKLPKSLSEECQEVVDTYGSSILSILLEEVSPELVCSMLHLCSGTRLPALTVHVTQPKDGGFCEVCKKLVGYLDRNLEKNSTKQEILAALEKGCSFLPDPYQKQCDQFVAEYEPVLIEILVEVMDPSFVCLKIGACPSAHKPLLGTEKCIWGPSYWCQNTETAAQCNAVEHCKRHVWN
- soluble on expression in E. coli: soluble

Sequence: MGSDKIHHHHHHMKVSSKPSLTWEILTSRADRPRQEVFPFNTGRCEYFYSARYALAAALDALKLSPQQSILMPSYNCWVEVEPAVRSGAKIDWYRVKTDFSIDEDDLLARIRPETAAIFVIHYLGFPQRLENIHRICTERGIVLIEDCAHALLSNDGDVPLGLTGDMAIFSIRKTVPIPDGGCLLINNPAFSVNRPRRVRPNLFATYFVVSEMLARGSTTEPKRVNQMAYSCNFAFARLARMGLRGIHKIFQDHGDYLVYPSGNHFNEQVKHWMMSDVSSAILRGTEFQRIKERRRANFLHLLDKLIMNDRITLPILSLPEGVSPLFFPVIVQDRDRVYRQLKDQGLSGHDWWGDFHPAVPWDKYPDAVYLKTNVFGFPVHQDLSRESLGIMLAEFSQCL
- soluble on expression in E. coli: not soluble

Sequence: MTMSLEVFEKLEAKVQQAIDTITLLQMEIEELKEKNNSLSQEVQNAQHQREELERENNHLKEQQNGWQERLQALLGRMEEV
- soluble on expression in E. coli: soluble

Sequence: MNDRLCFEVHDNKGYFVFPDTWFGPLLGEFEEVLDAYDADEISETSYINKLRRLAQREPDFIDIHAHLAYAFLEQNAPRKALNAALKGLAAGNRIIPESFCGEIIWMHPENRPYLRALYAAILANVHLQRHQDAVMLTDKILAYNPEDNQGARWLLGSELLRTGDHERAFSVLKEHADEFSPYWYELGLLHFLNGEHVKAATAFRHGFATNTYIAEMLCGNLHPFPLAVWHDFSGSLDTAEDYYATYSPLWGQYPEALLFVNWLYNHSSVLHERSEIIKCAEMLIQEDDFEICESILRQQEHLWKRIDKTLSEEIVQKCRNMNGEYIWPWILPFSAAGMKHSSIQYQMAGDPLEHHHHHH
- soluble on expression in E. coli: soluble

Sequence: MSLRFGIGYSATMGVRPNMEDVITFQTYPNDQHLFGLFDGHQGNVAAATSAICLHNELLQNAVNAPDDQLPAAITNCYTAVNQKLKMIGTRDGCTAISAFIRKNKCYTVGIGDSRIVLVKKNSSKRLTVDYKPTMRSEYERLRKCGLTVNSEGRIGRKLAVARTLGDFWCEGPGLYVPPDVSSFEINEEEDLALIIACDGVWDVIQDDDAAEIVRNSENAQDAATTLRNVAFALGSKDNISAMIVFFDSKEGHHHHHH
- soluble on expression in E. coli: soluble

Sequence: NHVRRVQELSKFFAEEMGLDEDLVHKIYLYAPLHDIGKIKVPKEILNKKGKLTAEEWEIMKKHTIWGGELLSGRKELEVARNIALYHHESYDGTGYPFGLKDDEIPIEAQIVKIVDVYDAL
- soluble on expression in E. coli: not soluble

Sequence: MSLMESWLIPAAPVTVVEEIKKSRFITMLAHTDGVEAAKAFVESVRAEHPDARHHCVAWVAGAPDDSQQLGFSDDGEPAGTAGKPMLAQLMGSGVGEITAVVVRYYGGILLGTGGLVKAYGGGVNQALRQLTTQRKTPLTEYTLQCEYHQLTGIEALLGQCDGKIINSDYQAFVLLRVALPAAKVAEFSAKLADFSRGSLQLLAIEEEGGSHHHHHH
- soluble on expression in E. coli: soluble

Sequence: MEQRTAEWFQARLGKVTASNIYNVLSKTAKGTPTSKYEEYKIKLMTERLTEEISQSYLTPAMQWGIEHEEDALKEYAIIYDTEVIKCGFIQHPTIEMAGASPDGLIGEEGLVEVKCPHSTKHLRFYMDGTIKPEYKAQMQFQMACTGRQWCDFVSYDPHFVGRSLRLRMKIKRIHRDEKQIEQINQAVEIFLEEIEQEMKQILTQAA
- soluble on expression in E. coli: not soluble

Reference: the DeepSol protein solubility set
